# Read-outs that look alike come from different tables or passages of the source.
# B1: PT3 Fab (B187) (Fab, V domains shown)
# VH: EVKLVESGGDLVKPGGSLKLSCAASGFTFSSYAMSWVRQNPEKRLEWVASISKGGNTYYPNSVKGRFTISRDNARNILYLQMSSLRSEDTALYYCARGWGDYGWFAYWGQVTLVTVSA
# VL: DIKMTQSPSSMYASLGERVTITCKASQDINRYLNWFQQKPGKSPKTLIYRANRLLDGVPSRFSGSGSGQDYSLTISSLDYEDMGIYYCLQYDEFPLTFGDGTKLELK
# notes: Chimeric Fab: mouse variable regions, human IgG1/kappa constant region, 6xHis tag at the C-terminus of the heavy chain; also called mouse parental Fab of PT3
# Key:
# [1] = molecular target: T1, tau phospho-peptide of the direct ELISA of Example 11; assay: direct ELISA, peptide coated
# T1 construct: also called pT217 peptide; pT212/pT217 peptide
# Outline: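 Tau phospho-peptide coated directly on plates at 10 ng/mL overnight, then incubated with antibodies. Bound Fab detected with HRPO-labelled anti-Fab antibody (1:10000) and TMB substrate. Binding curves generated from the read-out.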
# Peptide-1 [2] = molecular target: T2, Peptide-1 (human, phosphothreonine 212, phosphoserine 214, phosphothreonine 217 (tau 2N4R numbering); short chain biotin (SCBiot) and dPEG4 at the N-terminus; amide at the C-terminus); assay: SPR ProteOn, peptide captured, Fab as analyte
# T2 construct: also called tau peptide phosphorylated at T212/S214/T217
# T2 sequence (peptide, as listed by the source): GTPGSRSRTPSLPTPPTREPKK
# Description: (§1) The binding affinity of PT3 Fab towards each of the fourteen tau phosphopeptides shown in Table 6 was assessed by surface plasmon resonance (SPR) using a Bio-Rad ProteOn XPR36. Peptides were synthesized by standard chemical methods (New England Peptide) with short-chain biotin and a PEG4 moiety at the N-terminus. Biotinylated peptide was captured on a neutravidin-coated NLC biosensor chip and PT3 Fab was flowed over the surface to measure kinetic parameters.
# (§2) All experiments were performed at 25° C. using phosphate buffered saline, pH 7.4, 0.005% Tween 20 (PBST) as both running buffer and sample dilution buffer. Prior to running samples, the NLC chip was conditioned by running PBST over the chip surface for 1 h. Approximately 5-10 RU of peptide was captured on the chip surface by diluting peptide to 10 ng/mL in PBST and injecting over the flow channels at 30 μL/min for 100 s. Serial dilutions of PT3 Fab (1.1-90 nM) were analyzed and, with the exception of Peptide-8, each concentration was measured in duplicate. After capture of peptides, the antibody titration was injected at 60 μL/min for 3 minutes (association phase), followed by 300 s of buffer only (dissociation phase).
# (§3) The data were double referenced by subtraction of the interspot response and the curves generated by the buffer-only injection. The chip surface was regenerated using a single injection of 0.85% phosphoric acid at 30 μL/min for 100 s contact time, followed by four injections of running buffer before the next antibody titration injection. The data processing and kinetic analysis were done using the instrument software. The data were analyzed using a simple Langmuir 1:1 binding model.
# Peptide-2 [3] = molecular target: T3, Peptide-2 (human, phosphothreonine 212, phosphothreonine 217 (tau 2N4R numbering); short chain biotin (SCBiot) and dPEG4 at the N-terminus; amide at the C-terminus); assay: SPR ProteOn, peptide captured, Fab as analyte
# T3 construct: also called pT212/pT217-tau peptide (Peptide-2)
# Description: as §1, §2, §3
# Peptide-4 = Peptide-4 (human, phosphoserine 210, phosphothreonine 217 (tau 2N4R numbering); SCBiot and dPEG4 at the N-terminus; amide at the C-terminus); assay: SPR ProteOn, peptide captured, Fab as analyte
# Description: as §1, §2, §3
# Peptide-5 = Peptide-5 (human, phosphoserine 210, phosphoserine 214, phosphothreonine 217 (tau 2N4R numbering); SCBiot and dPEG4 at the N-terminus; amide at the C-terminus); assay: SPR ProteOn, peptide captured, Fab as analyte
# Description: as §1, §2, §3
# Peptide-6 [4] = molecular target: T4, Peptide-6 (human, phosphothreonine 217 (tau 2N4R numbering); SCBiot and dPEG4 at the N-terminus; amide at the C-terminus); assay: SPR ProteOn, peptide captured, Fab as analyte
# Description: as §1, §2, §3
# Peptide-2 [5] = molecular target: T3, Peptide-2; assay: SPR ProteOn, peptide captured, Fab as analyte; remark: listed apart in the source
# Description: A subset of HFA-PT3 monoclonal antibody variants, selected based on biophysical characterization and ELISA binding to PHF, were analyzed by Surface Plasmon Resonance (SPR) with a ProteOn XPR36 for binding to the following phosphopeptides: pT212/pT217-tau peptide (Peptide-2, SEQ ID NO: 48) and pT212-tau peptide (Peptide-8, SEQ ID NO: 54). All experiments were performed at 25° C. using PBST, pH 7.4, (Bio-Rad Cat#176-2720) as both running buffer and sample dilution buffer.
# Fab/peptide binding. Biotinylated peptide was captured on a neutravidin-coated NLC biosensor chip pre-conditioned with PBST, and Fab was flowed over the surface to measure kinetic parameters. Approximately 5-10 RU of peptide was captured on the chip surface by diluting peptide to 10 ng/mL in PBST and injecting over the flow channels at 30 μL/min for 100 s. Serial dilutions of PT3 Fab (1.1 nM to 90 nM) were injected at 60 μL/min for 3 minutes (association phase), followed by 300 s of buffer only (dissociation phase).
# Data were double referenced by subtraction of the interspot response, and the curves generated by the buffer only injection. The chip surface was regenerated with 0.85% phosphoric acid, followed by PBST injection before the next antibody titration injection. Data processing and analysis were performed using instrument software. The data were fit using a simple Langmuir 1:1 binding model.
# Peptide-7 = Peptide-7 (human, phosphothreonine 212, phosphoserine 214 (tau 2N4R numbering); SCBiot and dPEG4 at the N-terminus; amide at the C-terminus); assay: SPR ProteOn, peptide captured, Fab as analyte; Peptide-7, phosphorylated at 212/214
# Description: as §1, §2
# (§4) The data were double referenced by subtraction of the interspot response and the curves generated by the buffer-only injection. […] The data were analyzed using a simple Langmuir 1:1 binding model.
# Peptide-6 [6] = molecular target: T4, Peptide-6; assay: SPR ProteOn, peptide captured, Fab as analyte; range of n=2; upper end of n=2 range
# Description: as §1, §2, §3
# Peptide-1 [7] = molecular target: T2, Peptide-1; assay: SPR ProteOn, peptide captured, Fab as analyte; Peptide-1, phosphorylated at 212/214/217
# Description: as §1, §2, §4
# Peptide-3 = Peptide-3 (human, phosphoserine 214, phosphothreonine 217 (tau 2N4R numbering); SCBiot and dPEG4 at the N-terminus; amide at the C-terminus); assay: SPR ProteOn, peptide captured, Fab as analyte; Peptide-3, phosphorylated at 214/217; n=3
# Description: as §1, §2, §4
binder,measurement,setting,value
B1,EC50,[1],0.11 nM
same,koff,Peptide-1 [2],0.00028 s⁻¹
same,kon,Peptide-1 [2],1.27e+06 M⁻¹ s⁻¹
same,koff,Peptide-2 [3],0.000168 s⁻¹
same,kon,Peptide-2 [3],764000 M⁻¹ s⁻¹
same,koff,Peptide-4,0.00627 s⁻¹
same,kon,Peptide-4,968000 M⁻¹ s⁻¹
same,koff,Peptide-5,0.00584 s⁻¹
same,kon,Peptide-5,704000 M⁻¹ s⁻¹
same,koff,Peptide-6 [4],0.00616 s⁻¹
same,kon,Peptide-6 [4],541000 M⁻¹ s⁻¹
same,koff,Peptide-2 [5],6.39e-05 s⁻¹
same,kon,Peptide-2 [5],776000 M⁻¹ s⁻¹
same,Kd,Peptide-7,13.5 nM
same,koff,Peptide-6 [6],0.00625 s⁻¹
same,kon,Peptide-6 [6],558000 M⁻¹ s⁻¹
same,Kd,Peptide-1 [7],0.26 nM
same,Kd,Peptide-3,5.57 nM

# — patent publication US20230047413A1 (Janssen / Centocor, published 2023)
